Assay [1] deals with T1, human MIA protein labelled for the HTFP assay (MIA-biotin conjugate immobilised; MIA-Ru(bpy)3 in solution) (human, UniProt Q16674 25-131, Ru(bpy)3 (from Ru(bpy)3-isothiocyanate) on the copy in solution; biotin on the immobilised copy; sites not stated).
T1 construct: human MIA protein; source: human MIA protein labeled with Ru(bpy)3-isothiocyanate, purified over a size exclusion column (Sephadex G75 M PD-10)
T1 sequence (looked up): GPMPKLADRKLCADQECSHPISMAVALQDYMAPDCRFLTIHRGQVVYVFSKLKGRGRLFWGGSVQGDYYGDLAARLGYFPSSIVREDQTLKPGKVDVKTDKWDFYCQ
The experiment in a line: fluorescence polarisation; heterogeneous transition-metal-based fluorescence polarization (HTFP) assay: MIA-biotin immobilised in streptavidin-coated 96 well plates, MIA-Ru(bpy)3 in solution, RT, 250 uL per well, P/P0 against a well without MIA-biotin; peptides at 1.6 uM. Conditions: both partners purified.

Assay [2] deals with T2, recombinant human MIA, wild type (human, UniProt Q16674 25-131).
T2 construct: The printed residue numbers (C17, C106) fit the mature protein without its signal peptide; The vector may add a His tag; also called wt MIA; wild-type (wt) MIA; source: in vitro expression, Rapid Translation System RTS 500 E. coli HY Disulfide Kit (cell free)
T2 sequence (looked up): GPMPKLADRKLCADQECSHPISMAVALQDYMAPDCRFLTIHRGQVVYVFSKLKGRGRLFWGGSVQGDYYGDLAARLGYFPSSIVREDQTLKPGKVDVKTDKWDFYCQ
Description: NMR titration; 2D 1H-15N HSQC of uniformly 15N-enriched MIA with increasing amounts of AR71, 300 K, pH 7. Conditions: both partners purified.

For Ac-FHWRYPLPLPGQ-NH2 [dodecapeptide AR71], the binding result in assay [1] and in assay [2] was “binds” throughout.

For the origin of these results see PMC3362532, “Targeting Melanoma Metastasis and Immunosuppression with a New Mode of Melanoma Inhibitory Activity (MIA) Protein Inhibition” (PLoS ONE, 2012).
